Target: human SEZ6-His (soluble hSEZ6-his antigen) (human) (UniProt Q53EL9)
Experiment: SPR, Biacore T200, human SEZ6-His captured on anti-His chip, Fab as analyte

UniProt Q53EL9, sequence (Q53EL9 20-925): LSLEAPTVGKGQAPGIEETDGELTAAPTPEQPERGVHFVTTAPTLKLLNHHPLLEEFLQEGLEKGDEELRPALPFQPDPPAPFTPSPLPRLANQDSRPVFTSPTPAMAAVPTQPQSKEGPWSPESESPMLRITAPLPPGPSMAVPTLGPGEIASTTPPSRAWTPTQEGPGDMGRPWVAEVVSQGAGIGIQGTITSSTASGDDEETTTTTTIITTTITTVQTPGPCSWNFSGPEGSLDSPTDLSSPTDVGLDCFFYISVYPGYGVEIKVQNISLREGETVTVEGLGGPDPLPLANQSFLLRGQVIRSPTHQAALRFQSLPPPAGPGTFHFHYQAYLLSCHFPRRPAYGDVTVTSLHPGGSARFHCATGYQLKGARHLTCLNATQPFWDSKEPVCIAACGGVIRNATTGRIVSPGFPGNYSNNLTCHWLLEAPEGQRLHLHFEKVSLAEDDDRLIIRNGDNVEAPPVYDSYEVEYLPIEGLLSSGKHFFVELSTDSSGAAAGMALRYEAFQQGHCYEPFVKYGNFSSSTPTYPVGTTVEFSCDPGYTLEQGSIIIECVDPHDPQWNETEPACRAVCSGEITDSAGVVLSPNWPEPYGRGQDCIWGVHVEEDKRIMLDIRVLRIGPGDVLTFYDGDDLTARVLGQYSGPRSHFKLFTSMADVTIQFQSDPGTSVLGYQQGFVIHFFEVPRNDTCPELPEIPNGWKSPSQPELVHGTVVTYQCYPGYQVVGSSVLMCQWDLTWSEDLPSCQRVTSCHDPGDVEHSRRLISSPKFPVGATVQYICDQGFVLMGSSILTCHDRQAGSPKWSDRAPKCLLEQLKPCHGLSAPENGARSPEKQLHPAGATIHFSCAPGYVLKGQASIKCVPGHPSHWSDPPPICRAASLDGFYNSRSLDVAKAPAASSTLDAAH

Kd: 4.8 nM
koff: 0.006 s⁻¹
kon: 1.3e+06 M⁻¹ s⁻¹
B1: MutA (S60N) Fab (Fab construct of the hSEZ6-1.ss1 antibody with the S60N mutation) (Fab, V domains shown)
VH: EVQLVQSGAEVKKPGESLKISCKGSGYSFTSSWINWVRQMPGKGLEWMGRIYPGEGDTNYNGNFEGQVTISADKSISTAYLQWSSLKASDTAMYYCTRGLVMDYWGQGTLVTVSS
VL: EIVLTQSPATLSLSPGERATLSCRASQSVDYNGISYMHWYQQKPGQAPRLLIYAASNVQSGIPARFSGSGSGTDFTLTISSLEPEDFAVYYCQQSIEDPPTFGGGTKVEIK

Source: patent US20210196834A1
